The record followed here is US20020039776.

For the data set, the target named is free histones (mixture of H1, H3, H2B, H2A and H4; Boehringer Mannheim).

B1: GST-CLR4(127-490) (protein)
chain: KQSTALTTNDTSIILDDSLHTNSKKLGKTRNEVKEESQKRELVSNSIKEATSPKTSSILTKPRNPSKLDSYTHLSFYEKRELFRKKLREIEGPEVTLVNEVDDEPCPSLDFQFISQYRLTQGVIPPDPNFQSGCNCSSLGGCDLNNPSRCECLDDLDEPTHFAYDAQGRVRADTGAVIYECNSFCSCSMECPNRVVQRGRTLPLEIFKTKEKGWGVRSLRFAPAGTFITCYLGEVITSAEAAKRDKNYDDDGITYLFDLDMFDDASEYTVDAQNYGDVSRFFNHSCSPNIAIYSAVRNHGFRTIYDLAFFAIKDIQPLEELTFDYAGAKDFSPVQSQKSQQNRISKLRRQCKCGSANCRGWLFG
Consider B1, for which the HMTase activity result was “The SU(VAR)3-9 family members assayed, SUV39H1, Suv39h2 and CLR4, displayed HMTase activity”.

B2: GST-SUV39H1(82-412) (protein)
chain: CVRILKQFHKDLERELLRRHHRSKTPRHLDPSLANYLVQKAKQRRALRRWEQELNAKRSHLGRITVENEVDLDGPPRAFVYINEYRVGEGITLNQVAVGCECQDCLWAPTGGCCPGASLHKFAYNDQGQVRLRAGLPIYECNSRCRCGYDCPNRVVQKGIRYDLCIFRTDDGRGWGVRTLEKIRKNSFVMEYVGEIITSEEAERRGQIYDRQGATYLFDLDYVEDVYTVDAAYYGNISHFVNHSCDPNLQVYNVFIDNLDERLPRIAFFATRTIRAGEELTFDYNMQVDPVDMESTRMDSNFGLAGLPGSPKKRVRIECKCGTESCRKYLF
In the case of B2, the HMTase activity result was “The SU(VAR)3-9 family members assayed, SUV39H1, Suv39h2 and CLR4, displayed HMTase activity”.
